According to patent US20110300158A1 (GlaxoSmithKline, published 2011):
One block for each binder: values may come before it.

What was measured:
[1] = molecular target: T1, Human Serum Albumin (human, UniProt P02768 25-609); assay: SPR (BIAcore)
T1 construct: immobilised on CM5 chips; also called HSA; human SA
Experimental: (§1) Binding to HSA, CSA, MSA and RSA by BIAcore was confirmed using purified protein at 3 concentrations 1 μM, 500 nM and 50 nM.

[2] = molecular target: T2, Cynomolgus monkey Serum Albumin (Cynomolgus monkey, UniProt A2V9Z4 25-608); assay: SPR (BIAcore)
T2 construct: also called CSA; cyno SA
Experimental: as §1

[3] = molecular target: T3, Rat Serum Albumin (rat, UniProt P02770 25-608); assay: SPR (BIAcore), DOM1m-21-23 fusion against unfused dAb
T3 construct: also called RSA; rat SA

[4] = molecular target: T3, Rat Serum Albumin; assay: SPR (BIAcore), DOM1m-21-23 fusion; albumin taken as RSA from the sentence before; fused to DOM1m21-23
[5] = molecular target: T3, Rat Serum Albumin; assay: SPR (BIAcore)
Experimental: as §1

[6] = molecular target: T4, mouse serum albumin (mouse, UniProt P07724 25-608); assay: SPR (BIAcore)
T4 construct: also called MSA; mouse SA
Experimental: as §1

[7] = molecular target: T1, Human Serum Albumin; assay: SPR (BIAcore), second independent experiment
[8] = molecular target: T3, Rat Serum Albumin; assay: SPR (BIAcore), second independent experiment
[9] = molecular target: T4, mouse serum albumin; assay: SPR (BIAcore), second independent experiment
[10] = molecular target: T2, Cynomolgus monkey Serum Albumin; assay: SPR (BIAcore), second independent experiment

T2 sequence (A2V9Z4 25-608 limits assumed): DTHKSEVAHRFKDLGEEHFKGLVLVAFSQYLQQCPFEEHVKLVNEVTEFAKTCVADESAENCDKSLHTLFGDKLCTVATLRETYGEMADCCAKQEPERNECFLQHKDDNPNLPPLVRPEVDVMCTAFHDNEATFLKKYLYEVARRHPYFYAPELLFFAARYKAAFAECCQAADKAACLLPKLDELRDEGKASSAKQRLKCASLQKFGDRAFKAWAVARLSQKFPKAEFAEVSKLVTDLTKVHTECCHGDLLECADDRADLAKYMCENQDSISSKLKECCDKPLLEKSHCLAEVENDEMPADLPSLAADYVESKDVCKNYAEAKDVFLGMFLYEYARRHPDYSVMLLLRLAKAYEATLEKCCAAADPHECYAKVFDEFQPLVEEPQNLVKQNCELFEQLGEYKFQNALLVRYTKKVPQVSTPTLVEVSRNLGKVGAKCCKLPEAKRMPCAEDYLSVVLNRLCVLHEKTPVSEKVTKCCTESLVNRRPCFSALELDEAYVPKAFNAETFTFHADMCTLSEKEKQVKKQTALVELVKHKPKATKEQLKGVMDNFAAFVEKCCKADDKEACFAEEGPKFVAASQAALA
T3 sequence (P02770 25-608 limits assumed): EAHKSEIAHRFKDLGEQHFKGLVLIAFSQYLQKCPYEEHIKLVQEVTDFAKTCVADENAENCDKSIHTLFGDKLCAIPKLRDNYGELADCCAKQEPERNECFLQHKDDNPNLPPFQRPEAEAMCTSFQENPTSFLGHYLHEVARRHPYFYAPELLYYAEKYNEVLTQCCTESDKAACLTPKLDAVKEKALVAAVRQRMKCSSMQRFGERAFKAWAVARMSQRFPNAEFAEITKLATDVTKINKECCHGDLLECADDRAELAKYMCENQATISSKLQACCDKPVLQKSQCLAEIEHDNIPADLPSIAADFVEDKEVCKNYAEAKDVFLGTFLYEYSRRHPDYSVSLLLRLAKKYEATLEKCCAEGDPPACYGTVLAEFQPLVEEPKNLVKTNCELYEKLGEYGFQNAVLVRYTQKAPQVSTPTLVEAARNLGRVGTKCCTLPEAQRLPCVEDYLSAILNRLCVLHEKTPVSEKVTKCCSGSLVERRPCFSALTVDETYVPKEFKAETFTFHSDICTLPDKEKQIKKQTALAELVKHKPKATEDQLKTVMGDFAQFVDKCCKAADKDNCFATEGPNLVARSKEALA
T4 sequence (P07724 25-608 limits assumed): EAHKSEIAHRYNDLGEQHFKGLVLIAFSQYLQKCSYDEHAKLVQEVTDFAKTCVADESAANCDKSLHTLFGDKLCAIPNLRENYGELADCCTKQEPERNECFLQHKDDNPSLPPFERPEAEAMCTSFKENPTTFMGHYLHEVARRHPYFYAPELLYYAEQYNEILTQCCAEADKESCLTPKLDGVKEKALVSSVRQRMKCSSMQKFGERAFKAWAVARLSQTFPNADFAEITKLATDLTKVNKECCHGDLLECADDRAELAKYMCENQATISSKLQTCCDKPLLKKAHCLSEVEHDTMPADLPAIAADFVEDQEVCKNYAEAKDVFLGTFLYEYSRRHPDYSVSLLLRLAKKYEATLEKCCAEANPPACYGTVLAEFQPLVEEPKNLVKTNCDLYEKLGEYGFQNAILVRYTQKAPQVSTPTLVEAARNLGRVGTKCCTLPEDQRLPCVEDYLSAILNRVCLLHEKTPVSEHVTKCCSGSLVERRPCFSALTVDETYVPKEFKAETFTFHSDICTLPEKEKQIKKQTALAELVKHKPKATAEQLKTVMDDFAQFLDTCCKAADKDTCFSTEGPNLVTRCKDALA

Kd [1]: 2800 nM | koff [1]: 0.641 s⁻¹ | kon [1]: 700000 M⁻¹ s⁻¹
B1: DOM7h-11 (other)
VL: DIQMTQSPSSLSASVGDRVTITCRASRPIGTTLSWYQQKPGKAPKLLIWFGSRLQSGVPSRFSGSGSGTDFTLTISSLQPEDFATYYCAQAGTHPTTFGQGTKVEIKR
notes: Parental Vk dAb; also called DOM7h-12

kon [2]: 5.8e+06 M⁻¹ s⁻¹
B2: DOM7h-11-15 (other)
VL: DIQMTQSPSSLSASVGDRVTITCRASRPIGTMLSWYQQKPGKAPKLLILAFSRLQSGVPSRFSGSGSGTDFTLTISSLQPEDFATYYCAQAGTHPTTFGQGTKVEIKR
notes: Vk dAb; pDOM5 myc tag not included; also called DOM7-11-15; DOM7h-12-15

fold decrease in affinity compared to the unfused AlbudAb [3]: 2 fold
B3: DOM7h-11-12/DOM1m-21-23 fusion DMS number 5516 (bispecific antibody)
chain: EVQLLESGGGLVQPGGSLRLSCAASGFTFNRYSMGWLRQAPGKGLEWVSRIDSYGRGTYYEDPVKGRFSISRDNSKNTLYLQMNSLRAEDTAVYYCAKISQFGSNAFDYWGQGTQVTVSSASTSGPSDIQMTQSPSSLSASVGDRVTITCRASRPIGTMLSWYQQKPGKAPKLLILFGSRLQSGVPSRFSGSGSGTDFTLTISSLQPEDFATYYCAQAGTHPTTFGQGTKVEIKRAAAEQKLISEEDLN
notes: also called DMS5516

fold decrease in affinity compared to the unfused AlbudAb [3]: 2 fold
B4: DOM7h-11-15/DOM1m-21-23 fusion DMS number 5517 (bispecific antibody)
chain: EVQLLESGGGLVQPGGSLRLSCAASGFTFNRYSMGWLRQAPGKGLEWVSRIDSYGRGTYYEDPVKGRFSISRDNSKNTLYLQMNSLRAEDTAVYYCAKISQFGSNAFDYWGQGTQVTVSSASTSGPSDIQMTQSPSSLSASVGDRVTITCRASRPIGTMLSWYQQKPGKAPKLLILAFSRLQSGVPSRFSGSGSGTDFTLTISSLQPEDFATYYCAQAGTHPTTFGQGTKVEIKRAAAEQKLISEEDLN
notes: also called DMS5517

Kd [4]: 2800 nM
B5: DOM7h-11/DOM1m-21-23 fusion DMS number 5515 (bispecific antibody)
chain: EVQLLESGGGLVQPGGSLRLSCAASGFTFNRYSMGWLRQAPGKGLEWVSRIDSYGRGTYYEDPVKGRFSISRDNSKNTLYLQMNSLRAEDTAVYYCAKISQFGSNAFDYWGQGTQVTVSSASTSGPSDIQMTQSPSSLSASVGDRVTITCRASRPIGTTLSWYQQKPGKAPKLLIWFGSRLQSGVPSRFSGSGSGTDFTLTISSLQPEDFATYYCAQAGTHPTTFGQGTKVEIKRAAAEQKLISEEDLN
notes: also called DMS5515; 'the DOM7h-12 clone' when fused

Kd [1]: 30 nM | koff [1]: 0.033 s⁻¹ | kon [1]: 1.24e+06 M⁻¹ s⁻¹ | Kd [5]: 45 nM | koff [5]: 0.07 s⁻¹ | kon [5]: 2.1e+06 M⁻¹ s⁻¹ | Kd [6]: 26 nM | koff [6]: 0.034 s⁻¹ | kon [6]: 1.6e+06 M⁻¹ s⁻¹ | Kd [2]: 66 nM | koff [2]: 0.13 s⁻¹ | kon [2]: 2.5e+06 M⁻¹ s⁻¹ | Kd [7]: 8260 nM | koff [7]: 0.056 s⁻¹ | kon [7]: 6780 M⁻¹ s⁻¹ | Kd [8]: 140 nM | koff [8]: 0.114 s⁻¹ | kon [8]: 830000 M⁻¹ s⁻¹ | Kd [9]: 31 nM | koff [9]: 0.0715 s⁻¹ | kon [9]: 2.28e+06 M⁻¹ s⁻¹ | Kd [10]: 136 nM | koff [10]: 0.134 s⁻¹ | kon [10]: 980000 M⁻¹ s⁻¹
B6: DOM7h-14-28 (other)
VL: DIQMTQSPSSLSASVGDRVTITCRASQWIGSQLSWYQQKPGKAPKLLIMWRSSLQSGVPSRFSGSGSGTDFTLTISSLQPEDFATYYCAQGAALPKTFGQGTKVEIKR
notes: Vk dAb; tag not included

Kd [5]: 30 nM | koff [5]: 0.029 s⁻¹ | kon [5]: 1.55e+06 M⁻¹ s⁻¹ | Kd [6]: 35 nM | koff [6]: 0.023 s⁻¹ | kon [6]: 870000 M⁻¹ s⁻¹ | Kd [7]: 1260 nM | koff [7]: 0.067 s⁻¹ | kon [7]: 54000 M⁻¹ s⁻¹ | Kd [8]: 6120 nM | koff [8]: 0.0554 s⁻¹ | kon [8]: 9000 M⁻¹ s⁻¹ | Kd [9]: 33 nM | koff [9]: 0.0706 s⁻¹ | kon [9]: 2.11e+06 M⁻¹ s⁻¹ | Kd [10]: 7830 nM | koff [10]: 0.11 s⁻¹ | kon [10]: 14300 M⁻¹ s⁻¹
B7: DOM7h-14-36 (other)
VL: DIQMTQSPSSLSASVGDRVTITCRASQWIGSQLSWYQQKPGKAPKLLIMWRSSLQSGVPSRFSGSGSGTDFTLTISSLQPEDFATYYCAQGFKKPRTFGQGTKVEIKR
notes: Vk dAb; tag not included
